T1: HlyU_Vc wild type (Vibrio cholerae, UniProt P52695 1-108)
T1 sequence: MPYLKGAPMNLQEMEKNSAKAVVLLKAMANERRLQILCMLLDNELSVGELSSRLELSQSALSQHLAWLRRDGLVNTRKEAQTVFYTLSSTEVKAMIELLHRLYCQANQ

B1: HlyU of V. cholerae, wild type (natural protein)
chain: T1 sequence
notes: not shown: His6, N-terminal, cleaved
B2: O1 (dsDNA)
DNA 1: TTTATAAATTAATTCAGACTAAATTAGTTCAAATT
DNA 2: AATTTGAACTAATTTAGTCTGAATTAATTTATAAA
B3: O2 (dsDNA)
DNA 1: ATTAATCTTTAAATCAACTTTATAAATTAATTCAG
DNA 2: CTGAATTAATTTATAAAGTTGATTTAAAGATTAAT
B4: O3 (dsDNA)
DNA 1: TTGGGGGGGGGGGGGGGACTAAATTAGTTCAAATT
DNA 2: AATTTGAACTAATTTAGTCCCCCCCCCCCCCCCAA
B5: HlyU_Vc R70A (natural protein)
chain: T1 sequence with R70A
notes: source: E. coli BL21 (DE3), purified (Ni-NTA); not shown: His6, N-terminal, cleaved
B6: HlyU_Vc R69A (natural protein)
chain: T1 sequence with R69A
notes: as for B5
B7: HlyU_Vc Q81A (natural protein)
chain: T1 sequence with Q81A
notes: as for B5
B8: HlyU_Vc R32A (natural protein)
chain: T1 sequence with R32A
notes: as for B5
B9: HlyU_Vc N30A (natural protein)
chain: T1 sequence with N30A
notes: as for B5
B10: HlyU_Vc Q63A (natural protein)
chain: T1 sequence with Q63A
notes: as for B5
B11: HlyU_Vc S62A (natural protein)
chain: T1 sequence with S62A
notes: as for B5
B12: HlyU_Vc K26A (natural protein)
chain: T1 sequence with K26A
notes: as for B5
B13: HlyU_Vc H64A (natural protein)
chain: T1 sequence with H64A
notes: as for B5
B14: HlyU_Vc E49A (natural protein)
chain: T1 sequence with E49A
notes: as for B5
B15: HlyU_Vc L65A (natural protein)
chain: T1 sequence with L65A
notes: as for B5
B16: HlyU_Vc W67A (natural protein)
chain: T1 sequence with W67A
notes: as for B5
B17: HlyU_Vc Y85A (natural protein)
chain: T1 sequence with Y85A
notes: as for B5
B18: HlyU_Vc K78A (natural protein)
chain: T1 sequence with K78A
notes: as for B5
B19: HlyU_Vc R33A (natural protein)
chain: T1 sequence with R33A
notes: as for B5
B20: HlyU_Vc A66S (natural protein)
chain: T1 sequence with A66S
notes: as for B5
B21: HlyU_Vc L98D (natural protein)
chain: T1 sequence with L98D
notes: as for B5
B22: HlyU_Vc T90A (natural protein)
chain: T1 sequence with T90A
notes: as for B5

Numbering of substitutions follows the chain as printed.

The first data set deals with the molecule itself. Put plainly: SEC.
Details: not given
A word on the stoichiometry N: it is the number of molecules, sites or subunits per partner or assembly. Turning to B1, the “stoichiometry N” value came to 2.

The next data set has as its target T1, HlyU_Vc wild type. Put plainly: EMSA; EMSA: 1 nM probe, 1 mM Tris, 6 mM NaCl, 0.5 mM MgCl2, 0.01 mM EDTA, 0.1 mM CaCl2, 0.2% glycerol, 0.03 mg/ml salmon sperm DNA, 1 h, 4 C, pH not stated; footprint: ~10 nM DNA, 1 h, 4 C. The conditions noted are these: protein: recombinant; tags: N-terminal 6xHis removed with thrombin; chain copies: 2; label: radiolabel; blunt. (Mobility shift assays separate free from complexed probe on a gel.)
Regarding B2, the binding result is “binds”. Regarding B3, the binding result was “no binding”. For B4, the binding result is “no binding”.

Another data set deals with the molecule itself. Put plainly: SEC; analytical gel filtration (AKTA prime Plus); 500 ug protein injected; 50 mM sodium phosphate, 200 mM sodium chloride, pH 6.8; molecular weight from marker proteins; self-association, dimer against monomer.
Details: not given
For B5, the binding result is recorded as “binds”. Regarding B6, the binding result was “binds”.

For the molecule B7, the binding result is reported as “binds”.

As to B8, the binding result is listed as “binds”. In the case of B9, the binding result is on record as “binds”. For B10, the binding result is given as “binds”. On to B11, for which the binding result is given as “binds”. As for B12, the binding result is on record as “binds”. Turning to B13, the binding result is “binds”. With B14, the binding result is “binds”. For the molecule B15, the binding result was “binds”.

Regarding B16, the binding result is “binds”. Take B17: the binding result is recorded as “binds”. Turning to B18, the binding result was “binds”.

Consider B19, for which the binding result is given as “binds”. As for B20, the binding result was “binds”. As to B21, the binding result was “binds”. In the case of B22, the binding result was “binds”.

For the origin of these results see paper PMC4330345 (Nucleic Acids Research, 2015).
